Tests used:
Assay in all cases: flow cytometry, alanine-scan library in HEK-293T, with cytochalasin B
hsGLUT4 D506A = target: T1, hsGLUT4 D506A (human, UniProt P14672 1-509)
T1 sequence: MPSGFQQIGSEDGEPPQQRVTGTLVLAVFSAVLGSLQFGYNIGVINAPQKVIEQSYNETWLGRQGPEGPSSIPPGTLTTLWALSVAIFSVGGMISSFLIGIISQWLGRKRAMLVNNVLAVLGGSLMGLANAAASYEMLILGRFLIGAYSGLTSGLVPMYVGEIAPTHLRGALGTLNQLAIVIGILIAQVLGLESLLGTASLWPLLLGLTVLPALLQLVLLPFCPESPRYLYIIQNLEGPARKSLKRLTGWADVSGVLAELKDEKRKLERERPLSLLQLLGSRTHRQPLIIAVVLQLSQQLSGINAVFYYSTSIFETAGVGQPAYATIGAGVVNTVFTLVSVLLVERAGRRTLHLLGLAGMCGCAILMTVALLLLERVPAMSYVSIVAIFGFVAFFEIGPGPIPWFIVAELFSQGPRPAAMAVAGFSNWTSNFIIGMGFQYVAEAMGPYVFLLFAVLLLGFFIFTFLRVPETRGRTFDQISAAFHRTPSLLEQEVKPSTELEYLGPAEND
Procedure, shortened: (§1)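 HEK-293T cells expressing individual GLUT4 alanine mutants were stained 48 h post-transfection with anti-GLUT4 scFv MAbs (2 μg/ml), then biotinylated secondary and streptavidin-PerCP, and read by high-throughput flow cytometry. Where used, cytochalasin B (10 uM final) was given for 30 min before and during primary antibody staining.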

hsGLUT4 I163A = target: T2, hsGLUT4 I163A (human, UniProt P14672 1-509)
T2 sequence: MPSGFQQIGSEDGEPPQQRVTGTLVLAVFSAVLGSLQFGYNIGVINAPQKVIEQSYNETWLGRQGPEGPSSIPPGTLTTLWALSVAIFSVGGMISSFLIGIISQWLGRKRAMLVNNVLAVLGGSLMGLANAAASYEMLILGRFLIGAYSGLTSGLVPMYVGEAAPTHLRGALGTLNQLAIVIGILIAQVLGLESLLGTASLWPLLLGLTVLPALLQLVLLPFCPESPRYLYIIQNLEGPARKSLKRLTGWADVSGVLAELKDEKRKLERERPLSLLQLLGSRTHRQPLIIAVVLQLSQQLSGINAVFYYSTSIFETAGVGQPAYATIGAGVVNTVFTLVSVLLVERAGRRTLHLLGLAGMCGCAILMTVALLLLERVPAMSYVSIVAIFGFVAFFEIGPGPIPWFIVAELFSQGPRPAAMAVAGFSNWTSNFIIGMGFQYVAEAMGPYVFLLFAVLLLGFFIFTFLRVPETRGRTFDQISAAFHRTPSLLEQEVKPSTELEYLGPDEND
Procedure, shortened: as §1

hsGLUT4 Q295A = target: T3, hsGLUT4 Q295A (human, UniProt P14672 1-509)
T3 sequence: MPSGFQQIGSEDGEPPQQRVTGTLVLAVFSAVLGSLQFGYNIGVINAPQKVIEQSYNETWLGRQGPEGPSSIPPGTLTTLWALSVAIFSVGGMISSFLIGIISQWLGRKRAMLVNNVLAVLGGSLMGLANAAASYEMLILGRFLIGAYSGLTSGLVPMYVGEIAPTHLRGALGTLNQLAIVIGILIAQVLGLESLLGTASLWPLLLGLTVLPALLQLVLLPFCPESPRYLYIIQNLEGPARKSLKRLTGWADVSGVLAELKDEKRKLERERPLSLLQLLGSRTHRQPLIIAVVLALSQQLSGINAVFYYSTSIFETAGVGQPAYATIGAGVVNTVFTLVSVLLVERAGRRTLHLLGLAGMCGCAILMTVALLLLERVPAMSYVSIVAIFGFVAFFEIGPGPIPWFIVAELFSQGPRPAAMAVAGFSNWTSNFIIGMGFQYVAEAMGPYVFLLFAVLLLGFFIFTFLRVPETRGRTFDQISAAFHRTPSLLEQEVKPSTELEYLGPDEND
Procedure, shortened: as §1

hsGLUT4 I313A = target: T4, hsGLUT4 I313A (human, UniProt P14672 1-509)
T4 sequence: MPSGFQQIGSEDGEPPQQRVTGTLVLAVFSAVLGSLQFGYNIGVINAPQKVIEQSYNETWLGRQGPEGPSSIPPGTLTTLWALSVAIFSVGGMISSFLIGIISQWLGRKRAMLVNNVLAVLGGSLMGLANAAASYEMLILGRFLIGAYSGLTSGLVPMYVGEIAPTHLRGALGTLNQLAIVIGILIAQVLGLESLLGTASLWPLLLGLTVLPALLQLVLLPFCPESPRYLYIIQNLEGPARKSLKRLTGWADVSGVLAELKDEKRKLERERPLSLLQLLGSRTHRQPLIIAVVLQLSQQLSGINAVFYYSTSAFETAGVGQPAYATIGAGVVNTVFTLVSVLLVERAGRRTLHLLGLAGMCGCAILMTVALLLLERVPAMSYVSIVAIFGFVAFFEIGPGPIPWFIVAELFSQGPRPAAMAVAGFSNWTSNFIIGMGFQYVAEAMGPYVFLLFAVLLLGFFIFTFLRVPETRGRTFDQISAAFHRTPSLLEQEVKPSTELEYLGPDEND
Procedure, shortened: as §1

% of binding to wild type GLUT4 (hsGLUT4 D506A): 60% | % of binding to wild type GLUT4 (hsGLUT4 I163A): 28% | % of binding to wild type GLUT4 (hsGLUT4 Q295A): 89% | % of binding to wild type GLUT4 (hsGLUT4 I313A): 15%
B1: AB102 (Fc fusion)
scFv: ALTQPSSVSANLGGTVKITCSGGGSYGYGWYQQKSPGSAPVTVIYSNDQRPSDIPSRFSGSKSGSTATLTITGVRAEDEAIYYCGSTDSDYVGIFGAGTTLTVLGQSSRSSGGGGSSGGGGSAVTLDESGGGLQTPGGTLSLVCKASGFDFSSYATIWVRQAPGKGLEWVAGISGTGTGSSTGYAPAVKGRATISRDNGQSTVRLQLNNLRAEDTGSYFCAKSTGYGDSWIYPDSIDAWGHGTEVIVSS
notes: also called MAb AB102; not shown: Fc fragment of human IgG1, cloned in frame with the scFv
